B1: TPR t1 (parent)
chain: GACCAAUCUGCCCUCAGAGCUCGAGAACAUCUUCGGAUGCAGAGGAGGCAGGCUUCGGUGGCGCGAUAGCGCCAACGUCCUCAACCUCCAAUGCAUCCCACCACAUGAUGAUGCCUGAAGAGCCUUGGUUUUUUG

Variants of: B1
Assay: polymerase ribozyme fitness, log enrichment relative to wild type (log ratio); higher = more active; in vitro selection for triplet polymerase activity
In short: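 For each subunit of a heterodimeric triplet polymerase ribozyme, a mutant library was built by PCR and transcribed, then taken through a single in vitro selection round in triplicate. Selection involved annealing to a biotinylated primer, the partner subunit and triplets, incubation frozen at −7 °C, gel excision of extended constructs, capture on streptavidin beads and RT-PCR. Genotypes were retained after Illumina sequencing of inputs and outputs only with ≥10 input reads and ≥1 read in each output. Fitness is defined as the logarithm of a genotype's enrichment relative to wild-type enrichment, using inverse-variance-weighted averages across replicates, with the logarithm taken to base 2.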

Row | Variant | polymerase ribozyme fitness (log ratio)
1 | G48U G63A G110U | -4.15
2 | C49G G63C A111G G120A | -2.1
3 | G48U C101A U116G U130A | -4.7
4 | C49U C98A | -5.99
5 | C49A U78A U87G U130A | -1.01
6 | C49G C73G C89U G113A G122C | -4.49
7 | G48U C86A | -0.67
8 | C49A G60A A121C G122A | 0.833
9 | C49A C72A A83C C101A A121U | 0.741
10 | C49U C101G | -2.04
11 | C49U A119U | -0.961
12 | C49A U132A | -0.997
13 | C49G A50C C89U A91C | -2.86
14 | C49G A119U | -0.491
15 | C49A G77C | -0.848
16 | C49A C72A G110C U112A | -6.75
17 | C49G A121C | 0.434
18 | C49G C72A C79U G93U | -1.3
19 | G48U C102A A111G | -1.65
20 | C49A U54A G60U U81A G128U | -2
21 | C49G C99A G120C G122U | -6.79
22 | C49G C64G G77U A83U G120U | -7.69
23 | C49G U112G | 0.00648
24 | C49G U112A | 0.92

Row | Variant | polymerase ribozyme fitness (log ratio)
25 | C49G C62A | -1.32
26 | G48U G61U | 0.43
27 | C49U C72G C97U U106A | -0.73
28 | C49G C72G G117A U125A | -4.73
29 | C49U C53A | -0.289
30 | C49A A66U A90C | -3.76
31 | C49A U54A G77U | -0.966
32 | C49G C72A | -0.887
33 | C49G C62U A90U G113U | -4.27
34 | G48U U130C U133A | -0.9
35 | C49A G57U | -0.512
36 | C49A G57A | -1.5
37 | C49U C72G G113U G117U | -6.76
38 | C49G G71A U112A | -1.11
39 | C49G C64G G120U C124A G135U | -7.53
40 | C49A G71U C89A U130C | -2.94
41 | G48U G52U A90G A91U C114U | -2.83
42 | C49G G52A C53U A84G C85U C94U | -1.34
43 | G48U G71A | -1.06
44 | G48U G71U | -1.01
45 | C49U A95U U130G | -1.71
46 | C49G C101U U131C | -0.189
47 | C49G C56G C88U G120C G127A | -2.45
48 | C49A G113C | -2.05

Row | Variant | polymerase ribozyme fitness (log ratio)
49 | C49A G61C C80G C104A G117U | -8.34
50 | C49A G127U | -1.02
51 | C49A A91G G93U G117U G135A | -6.28
52 | G48U G57C | -0.412
53 | C49A C79A | -3.94
54 | C49U C114G | -3.71
55 | C49U C114U | -2.25
56 | C49U C114A | -2.34
57 | G48U U54C C73G C82G G113A G122A U126G | -6.92
58 | G48U G60A C85G | -0.64
59 | C49U C62U | -1.19
60 | C49U A119U G122U | -1.11
61 | G48U G135U | -2.2
62 | G48U G135C | -1.03
63 | C49A U78A U129G | -1.45
64 | C49G G57C G58C G63U | -3.06
65 | C49A A111C G113U | -5.03
66 | C49G A83G | 0.789
67 | C49U C70U U130C | -0.66
68 | G48U U55G | -0.43
69 | G48U C98U | -1.96
70 | G48U G93U | -1.29
71 | C49U A68G | -4.08
72 | G48U U132A | -0.856

Row | Variant | polymerase ribozyme fitness (log ratio)
73 | C49G G122U C124G | -1.12
74 | C49A C56U C123A | 0.705
75 | C49A C56G G69U C72A | -3.13
76 | C49A U78G U96G | -0.964
77 | C49G A90U G113U | -3.57
78 | G48U U59G C80A G120U C123A | -4.73
79 | C49A C114U | -1.61
80 | C49G C73G | -1.7
81 | C49G C80U C85G | -2.11
82 | C49A A68U G69C U112C U130A | -4.19
83 | C49G C56G A91C | -2.49
84 | C49U C94U | -1.08
85 | C49A C88A G127U | -2.42
86 | C49U C80U C114U G122U | -5.64
87 | C49A C73G U106G U130C | -2.23
88 | G48U G63A | -1.96
89 | C49G C70U C85G A105U | -3.38
90 | C49A G107U | -4.61
91 | C49A G61U U87C C98A | -3.8
92 | G48U C76U C89G C124U G128U U132C | -2.96
93 | C49G A90U | -2.58
94 | G48U C85G C89U | -0.48
95 | C49U C73U U81G U96C | -4.51
96 | G48U U59A G120U | -0.541

Row | Variant | polymerase ribozyme fitness (log ratio)
97 | C49U C86U C88G C115G | -4.09
98 | C49A C62U C85U C124G | 1.34
99 | C49U A95C | -1
100 | C49G C62U G113U | -4.48
101 | C49G G77U A95G | -1.23
102 | C49A C70A C73U U87A | -3.37
103 | C49U C53A C101A G120A | -1.13
104 | G48U U109G | -4.7
105 | G48U U109A | -5.53
106 | C49U C97G | -5.89
107 | G48U G51C A95C A111G U134A | -4.35
108 | C49U C56A | -1
109 | G48U G122A | -1.27
110 | C49G G52C | -0.352
111 | C49G C101G | -1.92
112 | C49G U55G C89A U92C | -5.1
113 | G48U G71U U81A C124U | -0.483
114 | C49A C72U G77U | -2.22
115 | C49A G61A G110U U125C | -2.14
116 | C49U A50G C70A | -4.55
117 | C49G G63A U87A | -2.53
118 | G48U U134G | -0.783
119 | C49G A84U G110C | -5.43
120 | C49G U112G U129G | -0.483

Row | Variant | polymerase ribozyme fitness (log ratio)
121 | C49G A103U | -5.7
122 | C49A C53U C101A | -1.38
123 | C49A G120U | -0.22
124 | G48U G58U G60U C82G C123U | 0.461
125 | C49A C89A | -1.76
126 | C49A C72A C94A | -0.633
127 | G48U G120A C123U | 0.409
128 | G48U U59A G69C U116C C124U | -2.23
129 | C49U A121U | 1.09
130 | G48U C97G | -4.5
131 | C49G C123A | -0.0129
132 | C49G C123G | 1.3
133 | C49A U59A A74U C114U | -2.86
134 | G48U U106C G117C | -5.18
135 | C49A A50G C88A | -1.58
136 | C49G U54A | 0.0212
137 | C49A G63U | -1.35
138 | G48U U116C | -1.64
139 | C49G G57U A119G U133G | -0.101
140 | C49G G69C U125G | -3.42
141 | C49G G77U U78A C85A | -1.63
142 | C49G A66C C101G | -4.2
143 | C49U C56A C70U C76A U132A | -3.06
144 | C49U C94U A111U | -5.05

Row | Variant | polymerase ribozyme fitness (log ratio)
145 | C49G C89A A111C A118C U129A U134G | -5.22
146 | C49G G71A | -0.461
147 | C49G G71U | -1.7
148 | C49A C88U C94U C123U U132G G135U | -1.38
149 | C49A G63A C70A U109C | -7.14
150 | C49G G60U U96G | -0.746
151 | C49G G61A U81C G120C | -3.67
152 | C49A C80A U112A | -5.57
153 | C49A C70A | -1.29
154 | C49A C70G | -4.31
155 | C49G C85U G117C | -3.67
156 | C49A U55G U125A G127A | -1.79
157 | C49G A68G G77U | -4.38
158 | C49G C85A U112G A121G C124U | -0.43
159 | G48U G71U U96C | -1.48
160 | C49A U54A C73U U112C | 1.26
161 | C49A G61A | 0.617
162 | C49A G61A C89G U106G C123U | -3.4
163 | C49G A100C C101U | -1.62
164 | G48U G58U C72U | 0.601
165 | C49A G52C C72A U96C | -0.937
166 | C49G C62A G93U C104A G113U U116A | -7.29
167 | C49A G51C G57C C72U C115G | -3.69

From the RNAGym collection of RNA variant scans (doi:10.1073/pnas.2313332121)
